In patent US20210403578A1 (published 2021):

Columns and labels:
Fz27C3 = assay: yeast surface titration
Fz27C49 = assay: yeast surface titration
Fz8-CRD = target: T1, Fz8-CRD (UniProt Q9H461 32-151, fluorescence-conjugated); assay: SPR
T1 chain: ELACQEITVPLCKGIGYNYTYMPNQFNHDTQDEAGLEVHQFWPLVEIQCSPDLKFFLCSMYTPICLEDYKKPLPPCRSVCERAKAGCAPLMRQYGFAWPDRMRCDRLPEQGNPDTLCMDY

Fzd1CRD = assay: SPR
Fzd5CRD = assay: SPR
Fzd7CRD = assay: SPR

B1: Fzd8-CRD (receptor)
chain: ELACQEITVPLCKGIGYNYTYMPNQFNHDTQDEAGLEVHQFWPLVEIQCSPDLKFFLCSMYTPICLEDYKKPLPPCRSVCERAKAGCAPLMRQYGFAWPDRMRCDRLPEQGNPDTLCMDY
modifications: fluorescence-conjugated
For B1, the Kd (Fz27C3) was ~0.122 nM and the Kd (Fz27C49) was ~0.092 nM.

B2: scFv(Onco)-DKK1c (other)
chain: MLLVNQSHQGFNKEHTSKMVSAIVLYVLLAAAAHSAFAADPIELTQPPSVSVAPGQTARISCSGDNIGSFYVHWYQQKPGQAPVLVIYDKSNRPSGIPERFSGSNSGNTATLTISGTQAEDEADYYCQSYANTLSLVFGGGTKLTVLGTTAASGSSGGSSSGAEVQLVESGGGLVQPGGSLRLSCAASGFTFSHYTLSWVRQAPGKGLEWVSVISGDGSYTYYADSVKGRFTISSDNSKNTLYLQMNSLRAEDTAVYYCARNFIKYVFANWGQGTLVTVSGSGSGKMYHTKGQEGSVCLRSSDCASGLCCARHFWSKICKPVLKEGQVCTKHRRKGSHGLEIFQRCYCGEGLSCRIQKDHHQASNSSRLHTCQRHHHHHHH
Binder B2 has a Kd (Fz8-CRD) of 1.4 nM, a Kd (Fzd1CRD) of 1.1 nM and a Kd (Fzd5CRD) of 0.75 nM. The Kd (Fzd7CRD) was 0.82 nM.
